These results are taken from publication PMC314469, “Protein Interaction Networks by Proteome Peptide Scanning” (PLoS Biology, 2004).

Sequences and labels used below:
T1: amphyphisin SH3 (AMPH_HUMAN), P49418
T1 chain: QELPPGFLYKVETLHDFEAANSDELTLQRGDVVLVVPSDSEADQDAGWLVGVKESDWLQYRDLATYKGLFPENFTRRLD

B1: Q9UDM5 470-484 (peptide)
chain: PSQVPPRPPPPRLP
B2: Q9H3T3 825-838 (peptide)
chain: PTGSLRRPLGPHAP
B3: Q99700 579-593 (peptide)
chain: PTRPPSRPPSRPSR
B4: Q9HBF9 133-146 (peptide)
chain: PSPNFKRPYQRFQW
B5: Q9HBS1 152-165 (peptide)
chain: PSQVPRRPHHTPFQ
B6: Q99755 29-42 (peptide)
chain: AASGIKRPMASEVL
B7: O75592 2352-2365 (peptide)
chain: ASPTPKRPSENMLI
B8: Q99785 97-111 (peptide)
chain: PSRPPRRPPWGRGS
B9: Q9H3D6 83-96 (peptide)
chain: PVEAIKRPSPDEPM
B10: Q9NRR6 185-199 (peptide)
chain: PSLLPPRPPPALSL
B11: Q12947 91-104 (peptide)
chain: ASSGLRRPEKPPYS
B12: Q9NZM4 744-758 (peptide)
chain: PTRPPSRPPSRPQS
B13: Q8TDP0 823-837 (peptide)
chain: PSPSPARPPGTSPP
B14: P43681 443-457 (peptide)
chain: PSPGPSRPPHGTQA
B15: Q96DL6 53-67 (peptide)
chain: PSLRPLKPPPPPRQ
B16: Q9H013 786-800 (peptide)
chain: PSQPPPRPPPDYLR
B17: Q9NUD3 48-61 (peptide)
chain: PVLSPRRPWPSLSW
B18: O75817 27-40 (peptide)
chain: PSRLPRRPNDIYVN
B19: O95327 205-218 (peptide)
chain: PTSSPHRPHRLPLA
B20: Q8WVQ3 114-128 (peptide)
chain: PSPLPPKPPFPGPG
B21: Q9HC35 168-181 (peptide)
chain: PTKSIKRPSPAEKS
B22: Q00610 58-71 (peptide)
chain: PSNPIRRPISADSA
B23: Q99700 584-597 (peptide)
chain: PSRPPSRPSRPPSH
B24: Q16671 539-552 (peptide)
chain: PTILPSRPQRSASH
B25: Q9NTY7 879-893 (peptide)
chain: ASQSPKKPPAKDPL
B26: Q9UFP0 807-820 (peptide)
chain: PSMDFNRPGKRAPW
B27: P47985 41-54 (peptide)
chain: PVLDLKRPFLSRES
B28: Q9BZD6 162-175 (peptide)
chain: PSIIFRRPEEAALS
B29: P13498 150-164 (peptide)
chain: PSNPPPRPPAEARK
B30: Q9C098 170-183 (peptide)
chain: PTQELRRPSKSMDK
B31: O75376 1024-1038 (peptide)
chain: PTTRPTRPPPPLIP
B32: O75916 510-523 (peptide)
chain: PSRFIRRPSTTISP
B33: Q9UPX1 609-622 (peptide)
chain: PSPALPRPSRSSPG
B34: Q9BQI8 153-166 (peptide)
chain: PVAVLKRPSQLSRK
B35: P48023 33-46 (peptide)
chain: PTSVPRRPGQRRPP
B36: Q00325 36-49 (peptide)
chain: PTGQPRRPRNLAAA
B37: P51511 317-330 (peptide)
chain: PTVTPRRPGRPDHR
B38: Q9BVH8 774-788 (peptide)
chain: PTEGPRRPPPRPPS

One experiment addresses T1, amphyphisin SH3 (AMPH_HUMAN), P49418. As to the kind of experiment: SPOT array.
For the molecule B1, the normalised SPOT signal, Boehringer light units (BLU); mean over the file's lines of this peptide turned out to be 2340.
On to B2, for which the normalised SPOT signal, Boehringer light units (BLU); mean over the file's lines of this peptide was found to be 15.7.
On the same count and under the same terms, to B3 belongs 23500; to B4, 43.9; to B5, 43.1.
Consider B6, for which the normalised SPOT signal, Boehringer light units (BLU); mean over the file's lines of this peptide came out at 48.8.
The same measure, in the same setting: under B7 stands 43.4.
On the same count and under the same terms, under B8 stands 10100; under B9, 42.3.
Take B10: the normalised SPOT signal, Boehringer light units (BLU); mean over the file's lines of this peptide worked out at 82.9.
On the same count and under the same terms, to B11 belongs 57.5; to B12, 7120; to B13, 31.2.
B14 returned a normalised SPOT signal, Boehringer light units (BLU); mean over the file's lines of this peptide of 47.
Still for that read-out and setting: to B15 belongs 876.
The same measure, in the same setting: to B16 belongs 68.9.
Turning to B17, the normalised SPOT signal, Boehringer light units (BLU); mean over the file's lines of this peptide was 101.
B18 registered a normalised SPOT signal, Boehringer light units (BLU); mean over the file's lines of this peptide of 38.8.
Still for that read-out and setting: under B19 stands 248.
On the same count and under the same terms, to B20 belongs 43.5; to B21, 7.4; to B22, 35.4.
Molecule B23 yielded a normalised SPOT signal, Boehringer light units (BLU); mean over the file's lines of this peptide of 11900.
The same measure, in the same setting: under B24 stands 17500.
The same measure, in the same setting: under B25 stands 57.6.
B26 displayed a normalised SPOT signal, Boehringer light units (BLU); mean over the file's lines of this peptide of 77.6.
For the molecule B27, the normalised SPOT signal, Boehringer light units (BLU); mean over the file's lines of this peptide came to 47.
As to B28, the normalised SPOT signal, Boehringer light units (BLU); mean over the file's lines of this peptide is 34.1.
On the same count and under the same terms, to B29 belongs 182; to B30, 48.6.
For the molecule B31, the normalised SPOT signal, Boehringer light units (BLU); mean over the file's lines of this peptide was 1510.
The same measure, in the same setting: under B32 stands 42; under B33, 778; under B34, 46.3.
On the same count and under the same terms, to B35 belongs 32.6.
Same read-out and setting: to B36 belongs 66; to B37, 5240.
As for B38, the normalised SPOT signal, Boehringer light units (BLU); mean over the file's lines of this peptide was found to be 3310.

For the next experiment, the target named is endophilin SH3 (SH3G2_HUMAN), Q99962. As to the kind of experiment: SPOT array.
For B1, the normalised SPOT signal, Boehringer light units (BLU); mean over the file's lines of this peptide is 12300.
Same read-out and setting: to B2 belongs 35; to B3, 19900; to B4, 71.3.
In turn, B5 yielded a normalised SPOT signal, Boehringer light units (BLU); mean over the file's lines of this peptide of 1670.
Still for that read-out and setting: under B6 stands 116.
Same read-out and setting: to B7 belongs 43.3; to B8, 12300.
Turning to B9, the normalised SPOT signal, Boehringer light units (BLU); mean over the file's lines of this peptide was 101.
Same read-out and setting: under B10 stands 5800.
For B11, the normalised SPOT signal, Boehringer light units (BLU); mean over the file's lines of this peptide was 106.
B12 displayed a normalised SPOT signal, Boehringer light units (BLU); mean over the file's lines of this peptide of 5850.
Same read-out and setting: to B13 belongs 67.6; to B14, 128; to B15, 4590.
The same measure, in the same setting: to B16 belongs 1790; to B17, 109; to B18, 41.9.
B19 displayed a normalised SPOT signal, Boehringer light units (BLU); mean over the file's lines of this peptide of 166.
Still for that read-out and setting: under B20 stands 843; under B21, 75.3.
On the same count and under the same terms, to B22 belongs 47.5; to B23, 11400; to B24, 9690.
On the same count and under the same terms, under B25 stands 60.6; under B26, 460; under B27, 50.1.
In turn, B28 gave a normalised SPOT signal, Boehringer light units (BLU); mean over the file's lines of this peptide of 48.3.
Still for that read-out and setting: under B29 stands 991; under B30, 35; under B31, 4420.
As to B32, the normalised SPOT signal, Boehringer light units (BLU); mean over the file's lines of this peptide came out at 364.
Molecule B33 had a normalised SPOT signal, Boehringer light units (BLU); mean over the file's lines of this peptide of 2060.
On the same count and under the same terms, to B34 belongs 72.6; to B35, 870; to B36, 254.
The molecule B37 displayed a normalised SPOT signal, Boehringer light units (BLU); mean over the file's lines of this peptide of 420.
Still for that read-out and setting: under B38 stands 3050.
